This is an account of results in PMC3359377, “A Novel Tool for Studying Auxin-Metabolism: The Inhibition of Grapevine Indole-3-Acetic Acid-Amido Synthetases by a Reaction Intermediate Analogue” (PLoS ONE, 2012).

The target in series [1] is T1, GH3-1 (Vitis vinifera, UniProt F6H697).
T1 construct: gene GH3.1_2
T1 sequence (F6H697 1-598): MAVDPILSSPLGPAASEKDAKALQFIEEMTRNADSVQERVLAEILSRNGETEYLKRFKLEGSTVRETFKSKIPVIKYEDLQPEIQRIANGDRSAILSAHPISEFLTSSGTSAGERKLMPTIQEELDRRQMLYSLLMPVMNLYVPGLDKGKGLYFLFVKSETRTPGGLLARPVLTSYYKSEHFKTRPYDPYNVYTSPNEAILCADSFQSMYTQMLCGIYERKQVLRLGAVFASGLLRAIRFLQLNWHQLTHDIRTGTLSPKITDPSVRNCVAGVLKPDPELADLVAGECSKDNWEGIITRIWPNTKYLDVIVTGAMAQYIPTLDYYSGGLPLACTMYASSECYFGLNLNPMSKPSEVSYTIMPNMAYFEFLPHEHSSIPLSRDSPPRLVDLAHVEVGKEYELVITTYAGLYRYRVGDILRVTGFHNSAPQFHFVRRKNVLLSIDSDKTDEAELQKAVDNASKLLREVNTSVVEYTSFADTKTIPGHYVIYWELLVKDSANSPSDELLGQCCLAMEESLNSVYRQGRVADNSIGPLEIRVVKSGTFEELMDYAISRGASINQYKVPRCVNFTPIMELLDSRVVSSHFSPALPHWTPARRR
Put plainly: IAA-Asp formation by LC-ESI-MS/MS with recombinant enzyme; Dixon plots. The series is classed as biochemical.

Substrate in series [2]: Nc1ncnc2c1ncn2[C@@H]1O[C@H](COP(=O)(O)OP(=O)(O)OP(=O)(O)O)[C@@H](O)[C@H]1O
The series can be described thus: Michaelis-Menten kinetics (Km), LC-ESI-MS/MS of IAA-Asp. The series is classed as biochemical, Vitis vinifera. The settings on record: Mg2+ catalytic site.

Substrate in series [3]: O=C(O)Cc1c[nH]c2ccccc12
The description is as above. The settings on record: MgATP catalytic site. The series is classed as biochemical, Vitis vinifera.

For `Nc1ncnc2c1ncn2[C@@H]1O[C@H](COP(=O)(O)OCCc2c[nH]c3ccccc23)[C@@H](O)[C@H]1O` [AIEP, adenosine-5′-[2-(1H-indol-3-yl)ethyl]phosphate], the Ki in series [1] came out at 200 nM.

B1: GH3-1 (Vitis vinifera) (protein)
chain: MAVDPILSSPLGPAASEKDAKALQFIEEMTRNADSVQERVLAEILSRNGETEYLKRFKLEGSTVRETFKSKIPVIKYEDLQPEIQRIANGDRSAILSAHPISEFLTSSGTSAGERKLMPTIQEELDRRQMLYSLLMPVMNLYVPGLDKGKGLYFLFVKSETRTPGGLLARPVLTSYYKSEHFKTRPYDPYNVYTSPNEAILCADSFQSMYTQMLCGIYERKQVLRLGAVFASGLLRAIRFLQLNWHQLTHDIRTGTLSPKITDPSVRNCVAGVLKPDPELADLVAGECSKDNWEGIITRIWPNTKYLDVIVTGAMAQYIPTLDYYSGGLPLACTMYASSECYFGLNLNPMSKPSEVSYTIMPNMAYFEFLPHEHSSIPLSRDSPPRLVDLAHVEVGKEYELVITTYAGLYRYRVGDILRVTGFHNSAPQFHFVRRKNVLLSIDSDKTDEAELQKAVDNASKLLREVNTSVVEYTSFADTKTIPGHYVIYWELLVKDSANSPSDELLGQCCLAMEESLNSVYRQGRVADNSIGPLEIRVVKSGTFEELMDYAISRGASINQYKVPRCVNFTPIMELLDSRVVSSHFSPALPHWTPARRR
Regarding B1, in series [2], the Km was 13.2 ± 1.4 µM, the Vmax was found to be 0.261 µmol/min/mg and the kcat worked out at 0.3 s⁻¹. Also, in series [3], the Km stood at 21.1 ± 1.4 µM, the Vmax came out at 0.384 µmol/min/mg and the kcat turned out to be 0.442 s⁻¹.
